Assay [1] addresses T1, Saccharomyces cerevisiae Cdh1 WD40 domain (residues 241-550) (S. cerevisiae, UniProt P53197 241-550).
T1 sequence (looked up): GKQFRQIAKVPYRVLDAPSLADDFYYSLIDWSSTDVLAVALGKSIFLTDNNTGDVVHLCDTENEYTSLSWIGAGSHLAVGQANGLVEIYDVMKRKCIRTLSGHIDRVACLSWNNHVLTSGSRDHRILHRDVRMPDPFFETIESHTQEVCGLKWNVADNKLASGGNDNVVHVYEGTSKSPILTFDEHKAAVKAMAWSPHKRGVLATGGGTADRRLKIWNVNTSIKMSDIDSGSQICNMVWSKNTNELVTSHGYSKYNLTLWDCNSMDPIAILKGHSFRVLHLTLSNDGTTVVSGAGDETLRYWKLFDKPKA
Description: crystal structure.

In assay [2] the target is T1, Saccharomyces cerevisiae Cdh1 WD40 …. The experiment in a line: SAXS.
The target is the same in assay [3]. Description: AUC.
Assay [4] has the same target. The experiment in a line: SEC-MALS.

Substitutions are numbered along the chain they refer to. Names may count otherwise. Square brackets hold non-standard residues; d marks the D form. pS = N[C@@H](COP(=O)(O)O)C(=O)O

B1: Acm1 central inhibitory region (residues 59-128) (domain or fragment, S. cerevisiae, UniProt Q08981 59-128, looked up)
chain: AQFMLYEETAEERNIAVHRHNEIYNNNNSVSNENNPSQVKENL[pS]PAKICPYERAFLREGGRIALKDLSVD
As for B1, the binding result in assay [1] is on record as “binds”.

B2: Acm1^CIR-mNEN (Acm1^CIR-N90A/E91A/N92A) (domain or fragment, S. cerevisiae, UniProt Q08981 59-128, looked up)
chain: AQFMLYEETAEERNIAVHRHNEIYNNNNSVSAAANPSQVKENLSPAKICPYERAFLREGGRIALKDLSVD
Take B2: in assay [2], the binding result was “binds”.

B3: Acm1^ΔN (Acm1 residues 59-209), wild type (domain or fragment, S. cerevisiae, UniProt Q08981 59-209, looked up)
chain: AQFMLYEETAEERNIAVHRHNEIYNNNNSVSNENNPSQVKENLSPAKICPYERAFLREGGRIALKDLSVDEFKGYIQDPLTDETIPLTLPLGDKKISLPSFITPPRNSKISIFFTSKHQGQNPETKISRSTDDVSEKKVVRKLSFHVYEDE
With B3, the binding result in assay [3] is “binds”.

B4: Acm1^ΔN-T161A (Acm1 residues 59-209, T161A) (domain or fragment, S. cerevisiae, UniProt Q08981 59-209, looked up)
chain: B3 chain with T103A
Turning to B4, the binding result in assay [4] was “binds”.

Values taken from article PMC3690534 (Molecular Cell, 2013).
